{"source": "patent US20140349341", "key": {"[1]": {"system": "Mgat1 ZFN right monomer (CompoZr, FokI fusion) (synthetic construct)", "experiment": "cell_activity", "details": "Cel-I assay day 3 in CHO cells (9.6% day 10); value is for ZFN pair; spacer ccagca"}, "[2]": {"system": "Mgat1 ZFN left monomer (CompoZr, FokI fusion) (synthetic construct)", "experiment": "cell_activity", "details": "Cel-I assay day 3 in CHO cells (9.6% day 10); value is for ZFN pair; spacer ccagca"}}, "data": [{"sequence": "GCTGTGGTAGTGGAGGAC (double strand) [CHO Mgat1 ZFN right half-site]", "values": [{"measurement": "activity", "setting": "[1]", "result": 8.8, "unit": "%"}]}, {"sequence": "AACAAGTTCAAGTTC (double strand) [CHO Mgat1 ZFN left half-site]", "values": [{"measurement": "activity", "setting": "[2]", "result": 8.8, "unit": "%"}]}]}
